Results on 2 molecules are retold here after PMC11698074 (Science Advances, 2025).

Experiment [1] addresses T1, His-GFP-Klp2 (S. pombe, UniProt Q9US03 1-817).
T1 sequence: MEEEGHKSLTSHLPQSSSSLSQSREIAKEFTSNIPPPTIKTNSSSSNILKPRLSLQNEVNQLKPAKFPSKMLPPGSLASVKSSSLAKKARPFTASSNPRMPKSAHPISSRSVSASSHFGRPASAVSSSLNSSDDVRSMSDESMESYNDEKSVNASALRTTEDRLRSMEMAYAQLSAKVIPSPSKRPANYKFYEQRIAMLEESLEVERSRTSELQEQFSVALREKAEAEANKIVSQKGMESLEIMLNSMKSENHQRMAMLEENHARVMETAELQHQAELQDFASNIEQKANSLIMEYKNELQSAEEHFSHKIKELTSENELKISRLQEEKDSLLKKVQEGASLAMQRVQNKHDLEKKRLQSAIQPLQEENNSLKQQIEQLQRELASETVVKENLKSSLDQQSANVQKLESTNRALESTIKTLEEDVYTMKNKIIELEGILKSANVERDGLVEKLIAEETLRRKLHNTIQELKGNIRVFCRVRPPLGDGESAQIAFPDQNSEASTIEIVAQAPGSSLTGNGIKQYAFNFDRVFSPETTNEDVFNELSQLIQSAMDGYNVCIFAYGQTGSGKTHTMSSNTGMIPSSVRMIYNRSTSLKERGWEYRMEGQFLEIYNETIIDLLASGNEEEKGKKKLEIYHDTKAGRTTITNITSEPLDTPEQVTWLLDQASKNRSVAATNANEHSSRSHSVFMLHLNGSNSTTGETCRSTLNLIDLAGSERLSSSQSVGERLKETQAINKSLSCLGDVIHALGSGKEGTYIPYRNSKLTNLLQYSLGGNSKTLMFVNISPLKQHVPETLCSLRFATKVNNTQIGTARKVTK
Put plainly: pull-down.

For experiment [2], the target named is T2, StrepII-GFP-Klp2 (S. pombe, UniProt Q9US03 1-817).
T2 sequence: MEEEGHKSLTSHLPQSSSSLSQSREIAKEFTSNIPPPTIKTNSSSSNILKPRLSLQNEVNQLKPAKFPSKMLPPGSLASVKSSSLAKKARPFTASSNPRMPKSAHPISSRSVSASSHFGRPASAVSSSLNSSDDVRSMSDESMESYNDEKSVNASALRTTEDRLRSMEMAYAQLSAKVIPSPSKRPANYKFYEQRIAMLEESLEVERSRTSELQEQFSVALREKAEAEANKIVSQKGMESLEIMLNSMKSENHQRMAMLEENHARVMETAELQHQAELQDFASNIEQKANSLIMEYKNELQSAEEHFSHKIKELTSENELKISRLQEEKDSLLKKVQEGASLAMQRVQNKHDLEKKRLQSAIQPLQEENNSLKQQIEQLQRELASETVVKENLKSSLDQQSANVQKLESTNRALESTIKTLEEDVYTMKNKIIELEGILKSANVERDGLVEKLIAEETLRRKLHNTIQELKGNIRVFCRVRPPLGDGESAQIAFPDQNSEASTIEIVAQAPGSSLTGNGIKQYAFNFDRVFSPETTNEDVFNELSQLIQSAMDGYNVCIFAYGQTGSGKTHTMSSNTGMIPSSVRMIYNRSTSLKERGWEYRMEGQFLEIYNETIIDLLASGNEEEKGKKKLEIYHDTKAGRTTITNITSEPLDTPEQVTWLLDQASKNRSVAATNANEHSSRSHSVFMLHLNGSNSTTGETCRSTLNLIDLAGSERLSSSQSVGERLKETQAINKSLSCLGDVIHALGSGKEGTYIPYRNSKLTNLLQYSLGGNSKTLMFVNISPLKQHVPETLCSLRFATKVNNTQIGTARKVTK
Put plainly: TIRF microscopy of purified proteins on microtubules.

B1: GST-Rsp1 (natural protein)
chain: MARTAFHDEFVDYYTILGAESTSSYVEIRQQYLKLVLRYHPDRNPGREAEVLPQFQLIQKAHEVLKDPKLRELFDQRRLLEAGRPDGVLRFRPKKSGPKNDISTKVASKVSVTMATKFAEKKKKQDRENVDSKDNNITNFSLHRSFSASGKMEKNNSFKEVSTSKSYISSGYLHPKTSPIFKKNGYATENVVDPISSSPRFKGPNYNKFNAKLYLESLREKRRTYTPLSEISNGLNSNGVENSSITKSSPRSSSSSNNERFKDTSEESIIFTSPNTPEHPSVYQTDITPEIKLEHSDNNSPSKPEIPFRHPTSKPLPPKPLSRSKSSSLSRNQTRSQLNDLSAENDSTSNSTEYDDQLQSILRSLAIEGDDDEVAKVLPKPPSVPTIQAPIPPEAPRNLTNASVDSYLNSFEMYQRRWSSYSIIYTQYAFQWQIFKNKCFQLDLMNTPGQSRLIDNWKEGSQAIQLFYAYEQMHLRALEELQSLKESLFASFGI
As for B1, the binding result in experiment [1] is recorded as “binds”.

B2: Rsp1-mCherry-StrepII (natural protein)
chain: MARTAFHDEFVDYYTILGAESTSSYVEIRQQYLKLVLRYHPDRNPGREAEVLPQFQLIQKAHEVLKDPKLRELFDQRRLLEAGRPDGVLRFRPKKSGPKNDISTKVASKVSVTMATKFAEKKKKQDRENVDSKDNNITNFSLHRSFSASGKMEKNNSFKEVSTSKSYISSGYLHPKTSPIFKKNGYATENVVDPISSSPRFKGPNYNKFNAKLYLESLREKRRTYTPLSEISNGLNSNGVENSSITKSSPRSSSSSNNERFKDTSEESIIFTSPNTPEHPSVYQTDITPEIKLEHSDNNSPSKPEIPFRHPTSKPLPPKPLSRSKSSSLSRNQTRSQLNDLSAENDSTSNSTEYDDQLQSILRSLAIEGDDDEVAKVLPKPPSVPTIQAPIPPEAPRNLTNASVDSYLNSFEMYQRRWSSYSIIYTQYAFQWQIFKNKCFQLDLMNTPGQSRLIDNWKEGSQAIQLFYAYEQMHLRALEELQSLKESLFASFGI
Take B2: the binding result in experiment [2] was “binds”.
